For one molecule, list of priority (rank by SPR binding, high binders listed first) results are on record in patent US20230321209A1.

The target in the assay is human Adenovirus capsid. Description: SPR, peptide on adenovirus capsid (FIGS. 13A-13B). Background: SPR reads the build-up and loss of mass on a sensor chip optically.

In turn, KKKKKKKRAKVTSAMQTMLFTMLRKL [R1A_KRAKV SARS-CoV2 peptide with 6K poly-lysine tail] returned a list of priority (rank by SPR binding, high binders listed first) of 5 rank.
